Measured values from US20060159695A1.

Tests used:
[1] = biological target: RSV F protein on human RSV virus (Long strain) (human RSV, Long strain) (UniProt P12568); assay: cell-based or functional assay
[2] = biological target: soluble, extracellular domain of recombinantly expressed RSV F protein (human RSV); assay: SPR (BIAcore 3000), F protein amine-coupled to CM5 chip
[3] = biological target: RSV F protein (A2 strain) G438A (human RSV, A2 strain) (UniProt P03420); assay: cell ELISA, 293T cells expressing F
[4] = biological target: RSV F protein (A2 strain) T400A (human RSV, A2 strain) (UniProt P03420); assay: cell ELISA, 293T cells expressing F
[5] = biological target: RSV F protein (A2 strain) K272M (human RSV, A2 strain) (UniProt P03420); assay: cell ELISA, 293T cells expressing F
[6] = biological target: RSV F protein (A2 strain) K427Q (human RSV, A2 strain) (UniProt P03420); assay: cell ELISA, 293T cells expressing F
[7] = biological target: RSV F protein (A2 strain) T434S (human RSV, A2 strain) (UniProt P03420); assay: cell ELISA, 293T cells expressing F
[8] = biological target: RSV F protein (A2 strain) S436F (human RSV, A2 strain) (UniProt P03420); assay: cell ELISA, 293T cells expressing F
[9] = biological target: RSV F protein (A2 strain) S275F (human RSV, A2 strain) (UniProt P03420); assay: cell ELISA, 293T cells expressing F
[10] = biological target: RSV F protein (A2 strain) N428Q (human RSV, A2 strain) (UniProt P03420); assay: cell ELISA, 293T cells expressing F
[11] = biological target: RSV F protein (A2 strain) K433L (human RSV, A2 strain) (UniProt P03420); assay: cell ELISA, 293T cells expressing F
[12] = biological target: RSV F protein (A2 strain) N437D (human RSV, A2 strain) (UniProt P03420); assay: cell ELISA, 293T cells expressing F
[13] = biological target: RSV F protein (A2 strain) K433N (human RSV, A2 strain) (UniProt P03420); assay: cell ELISA, 293T cells expressing F
[14] = biological target: RSV F protein (A2 strain) R429K (human RSV, A2 strain) (UniProt P03420); assay: cell ELISA, 293T cells expressing F
[15] = biological target: RSV F protein (A2 strain) S436T (human RSV, A2 strain) (UniProt P03420); assay: cell ELISA, 293T cells expressing F
[16] = biological target: Wild-type RSV F protein (subgroup B, 18537 strain) (human RSV, 18537 strain) (UniProt P13843); assay: cell ELISA, 293T cells expressing F
[17] = biological target: RSV F protein (A2 strain) K433R (human RSV, A2 strain) (UniProt P03420); assay: cell ELISA, 293T cells expressing F
[18] = biological target: RSV F protein (A2 strain) I432T (human RSV, A2 strain) (UniProt P03420); assay: cell ELISA, 293T cells expressing F
[19] = biological target: RSV F protein (A2 strain) I431L (human RSV, A2 strain) (UniProt P03420); assay: cell ELISA, 293T cells expressing F
[20] = biological target: RSV F protein (A2 strain) K272Q (human RSV, A2 strain) (UniProt P03420); assay: cell ELISA, 293T cells expressing F
[21] = biological target: RSV F protein (A2 strain) K272T (human RSV, A2 strain) (UniProt P03420); assay: cell ELISA, 293T cells expressing F
[22] = biological target: RSV F protein (A2 strain) C422S (human RSV, A2 strain) (UniProt P03420); assay: cell ELISA, 293T cells expressing F
[23] = biological target: RSV F protein (A2 strain) V447A (human RSV, A2 strain) (UniProt P03420); assay: cell ELISA, 293T cells expressing F
[24] = biological target: RSV F protein (A2 strain) F483Y (human RSV, A2 strain) (UniProt P03420); assay: cell ELISA, 293T cells expressing F
[25] = biological target: RSV F protein (A2 strain) G430A (human RSV, A2 strain) (UniProt P03420); assay: cell ELISA, 293T cells expressing F
[26] = biological target: RSV F protein (A2 strain) I431A (human RSV, A2 strain) (UniProt P03420); assay: cell ELISA, 293T cells expressing F
[27] = biological target: RSV F protein (A2 strain) K433Q (human RSV, A2 strain) (UniProt P03420); assay: cell ELISA, 293T cells expressing F
[28] = biological target: RSV F protein (A2 strain) R429S (human RSV, A2 strain) (UniProt P03420); assay: cell ELISA, 293T cells expressing F
[29] = biological target: RSV F protein (A2 strain) F483L (human RSV, A2 strain) (UniProt P03420); assay: cell ELISA, 293T cells expressing F
[30] = biological target: RSV F protein (A2 strain) K433D (human RSV, A2 strain) (UniProt P03420); assay: cell ELISA, 293T cells expressing F
[31] = biological target: RSV F protein (A2 strain) F488L (human RSV, A2 strain) (UniProt P03420); assay: cell ELISA, 293T cells expressing F
[32] = biological target: RSV F protein (A2 strain) N428D (human RSV, A2 strain) (UniProt P03420); assay: cell ELISA, 293T cells expressing F
[33] = biological target: RSV F protein (A2 strain) I432Q (human RSV, A2 strain) (UniProt P03420); assay: cell ELISA, 293T cells expressing F
[34] = biological target: RSV F protein (A2 strain) F435Y (human RSV, A2 strain) (UniProt P03420); assay: cell ELISA, 293T cells expressing F
[35] = biological target: RSV F protein (A2 strain) I432L (human RSV, A2 strain) (UniProt P03420); assay: cell ELISA, 293T cells expressing F
[36] = biological target: RSV F protein (A2 strain) D486N (human RSV, A2 strain) (UniProt P03420); assay: cell ELISA, 293T cells expressing F
[37] = biological target: RSV F protein (A2 strain) K433S (human RSV, A2 strain) (UniProt P03420); assay: cell ELISA, 293T cells expressing F
[38] = biological target: Wild-type RSV F protein (subgroup A, A2 strain) (human RSV, A2 strain) (UniProt P03420); assay: cell ELISA, 293T cells expressing F
[39] = biological target: RSV F protein (A2 strain) K272N (human RSV, A2 strain) (UniProt P03420); assay: cell ELISA, 293T cells expressing F
[40] = biological target: RSV F protein (A2 strain) F488Y (human RSV, A2 strain) (UniProt P03420); assay: cell ELISA, 293T cells expressing F
[41] = biological target: RSV F protein (A2 strain) K433T (human RSV, A2 strain) (UniProt P03420); assay: cell ELISA, 293T cells expressing F
[42] = biological target: RSV F protein (A2 strain) K427E (human RSV, A2 strain) (UniProt P03420); assay: cell ELISA, 293T cells expressing F
[43] = biological target: RSV F protein (A2 strain) K427D (human RSV, A2 strain) (UniProt P03420); assay: cell ELISA, 293T cells expressing F

With palivizumab (antibody) the RSV neutralization IC50 (Palivizumab) [1] was 0.1 µg/mL and the Kd [2] was 1.1 nM.

chimeric 101F mAb (antibody) was tested, and the % mAb binding relative to wild-type [3] was 9.2%.

mAb19 (antibody) showed a % mAb binding relative to wild-type [4] of 161%, a % mAb binding relative to wild-type [5] of 100% and a % mAb binding relative to wild-type [6] of 155%. The % mAb binding relative to wild-type [7] was 84.9%, the % mAb binding relative to wild-type [8] was 163% and the % mAb binding relative to wild-type [9] was 31.7%. It also gave a % mAb binding relative to wild-type [10] of 194%, a % mAb binding relative to wild-type [11] of 24.5% and a % mAb binding relative to wild-type [12] of 33.2%. The % mAb binding relative to wild-type [13] was 28.7%, the % mAb binding relative to wild-type [14] was 11.2% and the % mAb binding relative to wild-type [15] was 85.8%. For the same substance, the % mAb binding relative to wild-type [16] was 105%, the % mAb binding relative to wild-type [17] was 23.1% and the % mAb binding relative to wild-type [18] was 170%. The % mAb binding relative to wild-type [19] was 65.5%, the % mAb binding relative to wild-type [20] was 88.7% and the % mAb binding relative to wild-type [21] was 68%. The % mAb binding relative to wild-type [22] was 194%, the % mAb binding relative to wild-type [23] was 62.7% and the % mAb binding relative to wild-type [24] was 141%. The % mAb binding relative to wild-type [3] was 19%, the % mAb binding relative to wild-type [25] was 0.15% and the % mAb binding relative to wild-type [26] was 81.8%. For the same substance, the % mAb binding relative to wild-type [27] was 47.4%, the % mAb binding relative to wild-type [28] was 3.9% and the % mAb binding relative to wild-type [29] was 101%. It also gave a % mAb binding relative to wild-type [30] of 1.6%, a % mAb binding relative to wild-type [31] of 40% and a % mAb binding relative to wild-type [32] of 121%. It also gave a % mAb binding relative to wild-type [33] of 57.9%, a % mAb binding relative to wild-type [34] of 9.2% and a % mAb binding relative to wild-type [35] of 64.4%. The % mAb binding relative to wild-type [36] was 30.7%, the % mAb binding relative to wild-type [37] was 112% and the % mAb binding relative to wild-type [38] was 99.9%. For the same substance, the % mAb binding relative to wild-type [39] was 62.3%, the % mAb binding relative to wild-type [40] was 56% and the % mAb binding relative to wild-type [41] was 64.4%. For the same substance, the % mAb binding relative to wild-type [42] was 68.7% and the % mAb binding relative to wild-type [43] was -12.7%.

For palivizumab Fab, the RSV neutralization IC50 (Palivizumab Fab) [1] was 3.2 µg/mL, the Kd [2] was 1.5 nM and the koff [2] was 0.0011 s⁻¹. It also gave a kon [2] of 720000 M⁻¹ s⁻¹.
